Target: eIF3 from HeLa cells (human (endogenous in HeLa)) (UniProt Q14152)
Assay: native gel or EMSA

## eIF2 from HeLa cells (from UniProt P05198 1-315; P20042 1-333) (complex)
  concentration below which the complex starts to dissociate: 200 to 300 nM

— paper PMC3258154
